Paper PMC7277169, “C-Methylation of S-adenosyl-L-Methionine Occurs Prior to Cyclopropanation in the Biosynthesis of 1-Amino-2-Methylcyclopropanecarboxylic Acid (Norcoronamic Acid) in a Bacterium” (Biomolecules, 2020)

System: T1, C[S+](CC[C@H](N)C(=O)O)C[C@H]1O[C@@H](n2cnc3c(N)ncnc32)[C@H](O)[C@@H]1O
T1 construct: C-terminal 8xHis tag kept; expressed in Streptomyces lividans TK23; Ni-NTA purified; homodimer
Assay: HPLC-HR-ESI-MS of APDS-derivatized ACC; Michaelis-Menten fit
Format: biochemical, Streptomyces violaceusniger
Details: 50 mM sodium phosphate pH 8.0, 30 °C, 60 min, PLP enzyme, unit typeset as 'mm' in text

rOrf30 (Orf30) (Streptomyces violaceusniger)
Km: 1090 ± 330 µM
kcat: 0.0049 ± 0.00068 s⁻¹
